Measured values reported in patent publication US20170320966A1 (INDUSTRIAL TECHNOLOGY RESEARCH INSTITUTE, published 2017).
Changes are numbered by the printed parent chain. Each block holds one binder with its values, some of them ahead of it.

Tests used:
[1] = target: T1, human CD34 protein (Fc tag) (human, UniProt P28906 32-290); assay: SPR (Biacore X), CD34-Fc immobilized on chip, antibody injected, bivalent fit
T1 construct: Bought reagent (Sino Biological); also called recombinant human CD34 protein; immobilized human CD34 protein; not shown: Fc tag
T1 sequence (looked up): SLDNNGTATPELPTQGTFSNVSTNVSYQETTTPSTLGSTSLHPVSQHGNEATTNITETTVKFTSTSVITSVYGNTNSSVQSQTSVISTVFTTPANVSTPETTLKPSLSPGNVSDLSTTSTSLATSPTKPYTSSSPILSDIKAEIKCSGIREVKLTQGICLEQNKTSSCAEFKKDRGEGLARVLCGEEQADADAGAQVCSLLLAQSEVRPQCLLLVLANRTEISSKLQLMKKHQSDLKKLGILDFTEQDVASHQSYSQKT
Method: (§1) FIGS. 8A and 8B show the surface plasma resonance (SPR) analysis of interaction between human CD34 protein and chimeric QBEND/10 (A) or humanized QBEND/10 (B). Each antibody was injected and flowed over a surface chip with immobilized human CD34 protein at a flow rate of 30 μl/min. The resulting SPR sensorgrams were analyzed to determine the association/dissociation rate constants using the analysis program (BIAevaluation 3.2) provided by the manufacturer.
(§2) The binding kinetics of QBEND/10 antibodies to the human CD34 protein (Fc tag) (Sino Biological Incorporation, Beijing, China) were measured by performing the Biacore system (Biacore X, GE Healthcare, South Logan, Utah, USA) in the electrophoresis running buffer HBS-EP (10 mM HEPES, pH 7.4; 150 mM NaCl; 3 mM EDTA; 0.005% surfactant P20). In Brief, human CD34 protein was immobilized onto a CMS sensor chip via amine coupling to a level of 1200 response units (RU), and purified antibodies with different concentrations were injected at a flow rate of 30 μl/min. The surface was regenerated by injection of 15 μl of 10 mM glycine-HCl, pH 2.5. Then, the sensorgrams obtained at each concentration were evaluated by the program BIA Evaluation 3.2 (GE Healthcare, South Logan, Utah, USA). The binding data were fitted with a 2:1 (bivalent) binding model to calculate the affinity constant KD, which was defined as the ratio of dissociation rate (koff)/association rate (kₒₙ).

[2] = target: T1, human CD34 protein (Fc tag); assay: SPR (Biacore X), CD34-Fc immobilized on chip
Method: as §1
as §2, with “The binding data were fitted with a 2:1 (bivalent) binding model to calculate the affinity constant KD, which was defined as the ratio of dissociation rate (koff)/association rate (kₒₙ).” left out

Kd [1]: 14.7 nM | koff [1]: 0.000262 s⁻¹ | kon [1]: 17800 M⁻¹ s⁻¹
B1: chimeric QBEND/10 (antibody, V domains shown)
VH: QVQLEQSGPELVKPGASVKMSCKASGYTFTSYVIHWVKQKPGQGLEWLGYTNPYNDVTKYNEKFKFKATLTSDKQSTTAYMEFSSLTSEDSAVYYCARYGGLWLYAMDYWGQGTSVTVSS
VL: QLVLTQSSSASFSLGASAKLTCTLSSQHRTFTIEWYQQQPLKPPKYVMELRKDGSHSTGDGIPDRFSGSSSGADRYLSISNIQPEDEAIYICGVGNTIKEQFVYVFGGGTKVTVL
notes: Expressed in NS0 cells; also called chimeric QBEND/10 antibody; parental antibody

Kd [1]: 7.34 nM | koff [1]: 0.000268 s⁻¹ | kon [1]: 36600 M⁻¹ s⁻¹ | fold increase of kon against chimeric QBEND/10 [2]: 2 fold
B2: humanized QBEND/10 (antibody, V domains shown)
VH: B1 VH with E5V, P9A, K74T, Q75S
VL: B1 VL with S8P, L41E, T58K, N81S, G108T
notes: Expressed in NS0 cells; also called resurfaced QBEND/10; humanized QBEND/10 antibody
